Publication PMC8350011, “Interactions between semaphorins and plexin–neuropilin receptor complexes in the membranes of live cells” (The Journal of Biological Chemistry, 2021)

Assays:
Test in all cases: PIE-FCCS (pulsed-interleaved excitation fluorescence cross-correlation spectroscopy); single live Cos-7 cells co-expressing eGFP and mCherry fusions, peripheral membrane, no exogenous ligand; 85 to 1245 molecules/μm^2; fraction correlated (fc): median below 0.09 monomer, 0.09-0.17 dimer, above 0.17 higher oligomers (homotypic)
[1] = molecular target: T1, plexin A4 (human, UniProt Q9HCM2 24-1894); details: partners not purified
T1 construct: Two constructs (eGFP and mCherry fusions); The N1 vectors probably put the fluorescent protein at the C-terminus; also called plexin A4-eGFP; plexin A4-mCh; source: Cos-7, transiently transfected, in the membrane of live cells

[2] = molecular target: the molecule itself
[3] = molecular target: T2, plexin A4ΔSema (human, UniProt Q9HCM2 24-1894, deletes residues 39 to 506); details: partners not purified
T2 construct: also called plexin A4ΔSema-eGFP; plexin A4ΔSema-mCh; source: Cos-7, transiently transfected, in the membrane of live cells
T2 sequence (looked up): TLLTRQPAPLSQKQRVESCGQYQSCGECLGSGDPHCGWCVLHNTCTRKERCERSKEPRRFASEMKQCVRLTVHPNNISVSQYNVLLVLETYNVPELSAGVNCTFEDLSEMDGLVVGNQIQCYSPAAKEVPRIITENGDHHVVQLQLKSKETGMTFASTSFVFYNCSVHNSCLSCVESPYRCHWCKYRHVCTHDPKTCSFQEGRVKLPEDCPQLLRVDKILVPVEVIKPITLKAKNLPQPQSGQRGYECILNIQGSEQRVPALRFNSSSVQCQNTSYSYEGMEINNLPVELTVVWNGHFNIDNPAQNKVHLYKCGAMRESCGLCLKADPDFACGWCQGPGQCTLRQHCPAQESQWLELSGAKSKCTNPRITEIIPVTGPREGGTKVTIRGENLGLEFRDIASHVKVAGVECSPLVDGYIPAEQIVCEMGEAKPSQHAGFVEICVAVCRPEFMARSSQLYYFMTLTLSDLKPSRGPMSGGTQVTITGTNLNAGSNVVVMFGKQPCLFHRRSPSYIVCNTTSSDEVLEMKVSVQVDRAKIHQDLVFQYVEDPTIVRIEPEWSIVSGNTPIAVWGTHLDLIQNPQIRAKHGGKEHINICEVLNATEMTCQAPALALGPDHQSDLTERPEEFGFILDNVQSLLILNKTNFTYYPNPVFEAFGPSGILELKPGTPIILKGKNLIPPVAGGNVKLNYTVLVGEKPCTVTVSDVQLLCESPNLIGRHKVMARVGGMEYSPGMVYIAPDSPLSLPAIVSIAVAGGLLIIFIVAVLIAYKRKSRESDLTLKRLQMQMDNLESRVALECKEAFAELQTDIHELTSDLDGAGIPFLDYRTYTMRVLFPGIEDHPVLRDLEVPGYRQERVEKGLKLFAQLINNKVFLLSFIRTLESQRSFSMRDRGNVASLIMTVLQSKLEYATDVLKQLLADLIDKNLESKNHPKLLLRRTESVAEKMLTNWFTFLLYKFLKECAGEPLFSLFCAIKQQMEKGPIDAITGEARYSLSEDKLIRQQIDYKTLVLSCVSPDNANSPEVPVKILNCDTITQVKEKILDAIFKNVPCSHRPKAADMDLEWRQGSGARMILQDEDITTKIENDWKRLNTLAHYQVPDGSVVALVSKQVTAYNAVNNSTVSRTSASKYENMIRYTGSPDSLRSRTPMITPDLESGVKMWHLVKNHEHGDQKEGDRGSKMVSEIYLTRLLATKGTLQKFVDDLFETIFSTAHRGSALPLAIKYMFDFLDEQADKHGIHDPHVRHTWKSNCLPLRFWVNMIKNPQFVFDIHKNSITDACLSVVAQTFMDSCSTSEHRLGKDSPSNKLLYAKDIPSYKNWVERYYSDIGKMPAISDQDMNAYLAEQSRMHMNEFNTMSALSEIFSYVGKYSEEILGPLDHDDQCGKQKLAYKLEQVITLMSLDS

B1: plexin A2 (receptor, human, UniProt O75051 35-1894, looked up)
chain: MPQFSTFHSENRDWTFNHLTVHQGTGAVYVGAINRVYKLTGNLTIQVAHKTGPEEDNKSCYPPLIVQPCSEVLTLTNNVNKLLIIDYSENRLLACGSLYQGVCKLLRLDDLFILVEPSHKKEHYLSSVNKTGTMYGVIVRSEGEDGKLFIGTAVDGKQDYFPTLSSRKLPRDPESSAMLDYELHSDFVSSLIKIPSDTLALVSHFDIFYIYGFASGGFVYFLTVQPETPEGVAINSAGDLFYTSRIVRLCKDDPKFHSYVSLPFGCTRAGVEYRLLQAAYLAKPGDSLAQAFNITSQDDVLFAIFSKGQKQYHHPPDDSALCAFPIRAINLQIKERLQSCYQGEGNLELNWLLGKDVQCTKAPVPIDDNFCGLDINQPLGGSTPVEGLTLYTTSRDRMTSVASYVYNGYSVVFVGTKSGKLKKIRADGPPHGGVQYEMVSVLKDGSPILRDMAFSIDQRYLYVMSERQVTRVPVESCEQYTTCGECLSSGDPHCGWCALHNMCSRRDKCQQAWEPNRFAASISQCVSLAVHPSSISVSEHSRLLSLVVSDAPDLSAGIACAFGNLTEVEGQVSGSQVICISPGPKDVPVIPLDQDWFGLELQLRSKETGKIFVSTEFKFYNCSAHQLCLSCVNSAFRCHWCKYRNLCTHDPTTCSFQEGRINISEDCPQLVPTEEILIPVGEVKPITLKARNLPQPQSGQRGYECVLNIQGAIHRVPALRFNSSSVQCQNSSYQYDGMDISNLAVDFAVVWNGNFIIDNPQDLKVHLYKCAAQRESCGLCLKADRKFECGWCSGERRCTLHQHCTSPSSPWLDWSSHNVKCSNPQITEILTVSGPPEGGTRVTIHGVNLGLDFSEIAHHVQVAGVPCTPLPGEYIIAEQIVCEMGHALVGTTSGPVRLCIGECKPEFMTKSHQQYTFVNPSVLSLNPIRGPESGGTMVTITGHYLGAGSSVAVYLGNQTCEFYGRSMSEIVCVSPPSSNGLGPVPVSVSVDRAHVDSNLQFEYIDDPRVQRIEPEWSIASGHTPLTITGFNLDVIQEPRIRVKFNGKESVNVCKVVNTTTLTCLAPSLTTDYRPGLDTVERPDEFGFVFNNVQSLLIYNDTKFIYYPNPTFELLSPTGVLDQKPGSPIILKGKNLCPPASGGAKLNYTVLIGETPCAVTVSETQLLCEPPNLTGQHKVMVHVGGMVFSPGSVSVISDSLLTLPAIVSIAAGGSLLLIIVIIVLIAYKRKSRENDLTLKRLQMQMDNLESRVALECKEAFAELQTDINELTSDLDRSGIPYLDYRTYAMRVLFPGIEDHPVLRELEVQGNGQQHVEKALKLFAQLINNKVFLLTFIRTLELQRSFSMRDRGNVASLIMTGLQGRLEYATDVLKQLLSDLIDKNLENKNHPKLLLRRTESVAEKMLTNWFAFLLHKFLKECAGEPLFMLYCAIKQQMEKGPIDAITGEARYSLSEDKLIRQQIEYKTLILNCVNPDNENSPEIPVKVLNCDTITQVKEKILDAVYKNVPYSQRPRAVDMDLEWRQGRIARVVLQDEDITTKIEGDWKRLNTLMHYQVSDRSVVALVPKQTSSYNIPASASISRTSISRYDSSFRYTGSPDSLRSRAPMITPDLESGVKVWHLVKNHDHGDQKEGDRGSKMVSEIYLTRLLATKGTLQKFVDDLFETLFSTVHRGSALPLAIKYMFDFLDEQADRHSIHDTDVRHTWKSNCLPLRFWVNVIKNPQFVFDIHKGSITDACLSVVAQTFMDSCSTSEHRLGKDSPSNKLLYAKDIPSYKSWVERYYADIAKLPAISDQDMNAYLAEQSRLHAVEFNMLSALNEIYSYVSKYSEELIGALEQDEQARRQRLAYKVEQLINAMSIES
notes: Two constructs (pEGFP-N1 and pmCh-N1, EcoR1 and Kpn1 sites); the N1 vectors probably put the fluorescent protein at the C-terminus; also called plexin A2-eGFP; plexin A2-mCh; source: Cos-7, transiently transfected, in the membrane of live cells
B1 was tested, and the “median fraction correlated (fc)” value [1] was 0.08, the “median fraction correlated (fc)” value [2] was 0.09 and the “stoichiometry N” value [2] was 2. The “median fraction correlated (fc)” value [3] was 0.23.
